Values belong to the binder of their own block, whether it stands above or below them.
Columns and labels:
[1] = target: T1, α3 subunit of the Na+/K+-ATPase, endogenous on mouse cells (cortical neurons, cortical slices, cardiac … (mouse, UniProt Q6PIC6 1-1013)); assay: cell-based or functional assay
[2] = target: T1, α3 subunit of the Na+/K+-ATPase, …; assay: competition against C-Ag20z8 on live cortical neurons, NIH Image analysis of immunofluorescence; competitor C-Ag20z8

- EC50 of c-fos induction (Fos in situ enzyme-linked immunoassay, cortical cultures) [1]: 0.0133 nM
- glutamate-induced Fos expression of agrin-deficient neurons grown 2 d in 5 nM fragment [1]: 2.2 fold
B1: C-Ag20z0, 20-kD COOH-terminal fragment of mouse agrin, z0 splice variant (ligand, not shown: small tags and cut ends)
chain: MDPRTYIEYLNAVTESEKALQSNHFELTLRTEATQGWLVLWIGKAAERADYMALAIVDGHLQLSYDLASQPVVLRSTVKVNTNRWLRVRAHREHREGSLQVGNEAPVTSSSPLGATQLDTDGALWLGGLQKLPVGQPLPKAYGTGFVGCLRNVVGHRQLHLLEDAVTKPELRPCPTLNSKLGPEQKLISEEDLNSAVDHHHHHH

- reduction of labeling (mean pixel intensity) at a 1:1 molar ratio [2]: ~30%
B2: rC-Agy4z8, soluble 95-kD COOH-terminal fragment of rat agrin, y4 z8 (ligand, UniProt P25304-5 1153-1951, looked up)
chain: AATGTTAAMATARATTVSRLPASSVTPRVYPSHTSRPVGRTTAPPTTRRPPTTATNMDRPRTPGHQQPSKSCDSQPCLHGGTCQDQDSGKGFTCSCTAGRGGSVCEKVQPPSMPAFKGHSFLAFPTLRAYHTLRLALEFRALETEGLLLYNGNARGKDFLALALLDGRVQFRFDTGSGPAVLTSLVPVEPGRWHRLELSRHWRQGTLSVDGETPVVGESPSGTDGLNLDTNLYVGGIPEEQVAMVLDRTSVGVGLKGCIRMLDINNQQLELSDWQRAAVQSSGVGECGDHPCLPNPCHGGALCQALEAGMFLCQCPPGRFGPTCADEKSPCQPNPCHGAAPCRVLSSGGAKCECPLGRSGTFCQTVLETAGSRPFLADFNGFSYLELKGLHTFERDLGEKMALEMVFLARGPSGLLLYNGQKTDGKGDFVSLALHNRHLEFCYDLGKGAAVIRSKEPIALGTWVRVFLERNGRKGALQVGDGPRVLGESPKSRKVPHTMLNLKEPLYIGGAPDFSKLARGAAVSSGFSGVIQLVSLRGHQLLTQEHVLRAVDVSPFADHPCTQALGNPCLNGGSCVPREATYECLCPGGFSGLHCEKGLVEKSVGDLETLAFDGRTYIEYLNAVIESPETLDSRALFSEKALQSNHFELSLRTEATQGLVLWIGKAAERADYMALAIVDGHLQLSYDLGSQPVVLRSTVKVNTNRWLRIRAHREHREGSLQVGNEAPVTGSSPLGATQLDTDGALWLGGLQKLPVGQALPKAYGTGFVGCLRDVVVGHRQLHLLEDAVTKPELRPCPTP
notes: domain: soluble 95-kD COOH-terminal fragment; Harvested in medium conditioned by transiently transfected COS-7 cells; concentration only estimated; also called Rat C-Ag4,8; rC-Ag95y4z8

- IC50 of inhibition of c-fos induction by 50 pM C-Ag95z8 (cortical cultures, single-site competition model) [1]: 64.5 pM
B3: C-Ag15, 15-kD COOH-terminal fragment of mouse agrin (37 amino acids deleted from the NH2 terminus of C-Ag20) (ligand, not shown: small tags and cut ends)
chain: MDPWIGKAAERADYMALAIVDGHLQLSYDLASQPVVLRSTVKVNTNRWLRVRAHREHREGSLQVGNEAPVTSSSPLGATQLDTDGALWLGGLQKLPVGQPLPKAYGTGFVGCLRNVVGHRQLHLLEDAVTKPELRPCPTLNSKLGPEQKLISEEDLNSAVDHHHHHH

- EC50 of c-fos induction (Fos in situ enzyme-linked immunoassay, cortical cultures) [1]: 0.0112 nM
- glutamate-induced Fos expression of agrin-deficient neurons grown 2 d in 5 nM fragment [1]: 2.2 fold
B4: C-Ag20z8, 20-kD COOH-terminal fragment of mouse agrin, z8 splice variant (ligand, not shown: small tags and cut ends)
chain: MDPRTYIEYLNAVTESELTNEIPAEKALQSNHFELTLRTEATQGWLVLWIGKAAERADYMALAIVDGHLQLSYDLASQPVVLRSTVKVNTNRWLRVRAHREHREGSLQVGNEAPVTSSSPLGATQLDTDGALWLGGLQKLPVGQPLPKAYGTGFVGCLRNVVGHRQLHLLEDAVTKPELRPCPTLNSKLGPEQKLISEEDLNSAVDHHHHHH
